# Where a chain is given by its changes, count along the chain named.
# B1: ZmPAH1-HSE1-HSE2R16 (dsDNA)
# DNA 1: TCTTCGAATTGCATAGGAAACTTCACGTCTTTTCAGCCCT
# DNA 2: AGGGCTGAAAAGACGTGAAGTTTCCTATGCAATTCGAAGA
# B2: ZmPAH1-HSE1-HSE2L16 (dsDNA)
# DNA 1: CAGCGTCACATGACGGGAATTTTCGTTCGAACGCATTCTG
# DNA 2: CAGAATGCGTTCGAACGAAAATTCCCGTCATGTGACGCTG
# B3: ZmPAH1-HSE1-HSE2M2 (dsDNA)
# DNA 1: TCTTCGAATTGCATAGGAATTTTCGTTCGAACGCATTCTG
# DNA 2: CAGAATGCGTTCGAACGAAAATTCCTATGCAATTCGAAGA
# B4: ZmPAH1-HSE1 (dsDNA)
# DNA 1: B3 DNA 1 with T20A, T21C
# DNA 2: B3 DNA 2 with A20G, A21T
# B5: ZmPAH1-HSE2 (dsDNA)
# DNA 1: CAGCGTCACATGACGGGAATTTTCACGTCTTTTCAGCCCT
# DNA 2: AGGGCTGAAAAGACGTGAAAATTCCCGTCATGTGACGCTG
# Molecular target: ZmHsf17 (Zea mays, UniProt A0A5J6CYG6 1-373)
# Sequence (A0A5J6CYG6 entry or part of it): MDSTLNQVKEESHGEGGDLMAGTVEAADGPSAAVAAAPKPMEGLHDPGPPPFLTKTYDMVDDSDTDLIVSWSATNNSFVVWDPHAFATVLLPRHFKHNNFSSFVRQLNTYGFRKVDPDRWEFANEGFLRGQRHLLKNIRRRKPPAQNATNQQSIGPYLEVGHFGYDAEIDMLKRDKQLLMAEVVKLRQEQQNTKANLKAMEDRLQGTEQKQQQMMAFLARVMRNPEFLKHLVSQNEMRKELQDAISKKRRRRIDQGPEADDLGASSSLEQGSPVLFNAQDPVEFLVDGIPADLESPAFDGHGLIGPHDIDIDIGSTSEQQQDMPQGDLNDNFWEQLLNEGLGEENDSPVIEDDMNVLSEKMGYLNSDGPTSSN
# Assay: EMSA; EMSA/Gel-Shift buffer (Beyotime GS009; composition, salt and pH not stated), 10 uL, 25 C 30 min; 6% native PAGE in 0.5x TBE at 4 C
# Details: protein: recombinant; tags: 6xHis (stated C-terminal; pET-30a); chain copies: 3; label: biotin; blunt
row,Binder,binding result
1,B1,binds
2,B2,binds
3,B3,no binding
4,B4,no binding
5,B5,binds

# — publication PMC12251660, “The Structural Deciphering of the α3 Helix Within ZmHsfA2’S DNA-Binding Domain for the Recognition of Heat Shock Elements in Maize”
